# B1: Pistol ribozyme (parent)
# chain: GGGUCGUUGUUCCAUAAUCGCGUGGAUAUGGCACGCAAGUUUCUACCGGGCACCGUAAAUGUCCGACUGGAGCCGUUCGGGCGGCUAUAAACAGACCUCAGGCCCGAAGCGUGGCGGCACCUGCCGCCGGUGGUAAAAAAGAUCGGAAGAGCACACGUCU
# Variants of: B1
# Experiment: aptazyme ON/OFF ratio, guanine; higher = stronger switching; co-transcriptional cleavage with and without guanine
row,Variant,aptazyme ON/OFF ratio
1,U10G C12U C13U,1.15
2,U10G C12U C13G,1.28
3,U10G C12U C13A,1.33
4,U11A C12U C13U,1.45
5,U11A C12U C13A,1.36
6,U11A C12U C13G,1.37
7,U10C U11C C13U,1.03
8,U10C U11C C13A,1.02
9,U10C U11C C13G,1.07
10,U10G U11A C12A C13U,1.27
11,U10G U11A C12A C13A,1.11
12,U10G U11A C12A C13G,1.06
13,U10C U11C C12U C13A,1.07
14,U10C U11C C12U C13U,1.02
15,U10C U11C C12U C13G,1.06
16,U10C U11C C12G C13U,1.11
17,U10C U11C C12G C13G,1.16
18,U10C U11C C12G C13A,1.17
19,U10G U11C C12U,1.08
20,U10G U11C C12G,1.43
21,U10G U11C C12A,1.51
22,U10C U11A C12U C13A,1.38
23,U10C U11A C12U C13G,1.32
24,U10C U11A C12U C13U,1.19
25,U10C U11A C12G,1.47

row,Variant,aptazyme ON/OFF ratio
1,U10C U11A C12U,1.45
2,U10C U11G C12A C13A,1.27
3,U10C U11G C12A C13U,1.3
4,U10C U11G C12A C13G,1.31
5,U10C U11A C12G C13G,1.25
6,U10C U11A C12G C13U,1.37
7,U10C U11A C12G C13A,1.29
8,U11C C12U C13A,1.4
9,U11C C12U C13U,1.52
10,U11C C12U C13G,1.43
11,U10G U11A C12G,1.4
12,U10G U11A C12U,1.15
13,U10G U11A C12A,1.39
14,C12G C13U,1.36
15,C12G C13A,1.37
16,C12G C13G,1.33
17,U10G U11A C12G C13U,1.33
18,U10G U11A C12G C13G,1.34
19,U10G U11A C12G C13A,1.16
20,U10C U11G,1.57
21,U10C U11C,1.06
22,U10G U11A C13A,1.15
23,U10G U11A C13U,1.05
24,U10G U11A C13G,1.12
25,U10G U11G C12A,1.37

row,Variant,aptazyme ON/OFF ratio
1,U10G U11G C12U,1.38
2,U10G U11G C12G,1.4
3,U11C C12U,1.57
4,U11C C12A,1.43
5,U11C C12G,1.55
6,U11A C13G,1.12
7,U11A C13U,1.29
8,U11A C13A,1.26
9,U10G C12A C13U,1.19
10,U10G C12A C13A,1.25
11,U10G C12A C13G,1.06
12,U10C U11G C12U,1.31
13,U10C U11G C12G,1.25
14,U10C U11G C12A,1.1
15,U10G,1.88
16,U10G U11C C12A C13U,1.4
17,U10G U11C C12A C13G,1.12
18,U10G U11C C12A C13A,1.23
19,U10G U11C C13A,1.05
20,U10G U11C C13U,1.04
21,U10G U11C C13G,1.04
22,U10G U11G C12A C13A,1.15
23,U10G U11G C12A C13U,1.22
24,U10G U11G C12A C13G,1.11
25,C12U,1.91

row,Variant,aptazyme ON/OFF ratio
1,C12G,1.45
2,C12A,1.76
3,U10C U11G C12G C13A,1.24
4,U10C U11G C12G C13G,1.23
5,U10C U11G C12G C13U,1.11
6,U11A C12A C13G,1.53
7,U11A C12A C13A,1.59
8,U11A C12A C13U,1.47
9,U10G U11A C12U C13U,1.36
10,U10G U11A C12U C13A,1.28
11,U10G U11A C12U C13G,1.2
12,U10G C12G C13U,1.34
13,U10G C12G C13G,1.09
14,U10G C12G C13A,1.17
15,U10G U11C C12U C13A,1.2
16,U10G U11C C12U C13U,1.11
17,U10G U11C C12U C13G,1.27
18,U10G U11G C12G C13A,1.1
19,U10G U11G C12G C13G,1.18
20,U10G U11G C12G C13U,1.26
21,U11G C12G C13U,1.32
22,U11G C12G C13A,1.2
23,U11G C12G C13G,1.27
24,U11C C12A C13U,1.31
25,U11C C12A C13G,1.43

row,Variant,aptazyme ON/OFF ratio
1,U11C C12A C13A,1.53
2,U10G C13U,1.5
3,U10G C13G,1.32
4,U10G C13A,1.13
5,U10C U11C C12A,1.27
6,U10C U11C C12G,1.07
7,U10C U11C C12U,1.08
8,U11A C12G C13U,1.42
9,U11A C12G C13G,1.18
10,U11A C12G C13A,1.11
11,U10G U11G C13G,1.21
12,U10G U11G C13A,1.26
13,U10G U11G C13U,1.16
14,U10G U11G C12U C13U,1.26
15,U10G U11G C12U C13G,1.3
16,U10G U11G C12U C13A,1.32
17,U11A C12U,1.64
18,U11A C12G,1.28
19,U11A C12A,2.18
20,U11G C12U C13U,1.11
21,U11G C12U C13A,1.1
22,U11G C12U C13G,1.04
23,U11C C13G,1.07
24,U11C C13U,1.24
25,U11C C13A,1.2

row,Variant,aptazyme ON/OFF ratio
1,U10G C12G,1.12
2,U10G C12A,1.41
3,U10G C12U,1.58
4,U10C U11A C13U,1.23
5,U10C U11A C13G,1.08
6,U10C U11A C13A,1.25
7,U11G C12A C13U,1.24
8,U11G C12A C13G,1.22
9,U11G C12A C13A,1.14
10,U10C U11G C12U C13U,1.28
11,U10C U11G C12U C13A,1.36
12,U10C U11G C12U C13G,1.33
13,U10C U11C C12A C13G,1.17
14,U10C U11C C12A C13U,1.08
15,U10C U11C C12A C13A,1.19
16,U11C C12G C13A,1.46
17,U11C C12G C13G,1.49
18,U11C C12G C13U,1.33
19,U10G U11C,1.03
20,U10G U11A,1.12
21,U10G U11G,1.22
22,C13G,1.13
23,C13A,1.36
24,C13U,1.38
25,U11G C12A,1.11

row,Variant,aptazyme ON/OFF ratio
1,U11G C12G,1.34
2,U11G C12U,1.29
3,U11G C13U,1.06
4,U11G C13A,1.05
5,U11G C13G,1.03
6,U11A,1.84
7,U11C,1.53
8,U11G,1.22
9,U10C U11G C13A,1.27
10,U10C U11G C13G,1.22
11,U10C U11G C13U,1.35
12,C12A C13G,1.27
13,C12A C13A,1.34
14,C12A C13U,1.9
15,C12U C13U,1.26
16,C12U C13A,1.28
17,C12U C13G,1.29
18,U10G U11C C12G C13G,1.14
19,U10G U11C C12G C13A,1.28
20,U10G U11C C12G C13U,1.48

# Source: the RNAGym collection of RNA variant scans (doi:10.1021/acssynbio.7b00057)
